From paper PMC12099056, “Targeting the Exonic Circular OGT RNA/O-GlcNAc Transferase/Forkhead Box C1 Axis Inhibits Asparagine- and Alanine-Mediated Ferroptosis Repression in Neuroblastoma Progression” (Research, 2025) come the findings set out here.

A short description of data set [1]: Western blot of FOXC1 level. As to conditions: glycan lost; control: mock, sh-Scb or untreated. For orientation: Immunoblotting shows a protein as a band on a membrane.
Data set [2] in a line: CHX chase Western blot (protein stability), SH-SY5Y. As to conditions: glycan lost; control: sh-Scb.
Data set [3] can be described thus: dual-luciferase FOXC1 reporter, SH-SY5Y. As to conditions: glycan lost; control: wild-type Flag-FOXC1.
Data set [4] is described as follows: CHX chase Western blot (protein stability). As to conditions: glycan lost; control: untreated.
In data set [5] the target is T1, recombinant GST-tagged OGT (wild-type) (human, UniProt O15294 1-1046).
T1 construct: O-GlcNAc transferase (OGT), human cDNA (printed as 3,131 bp) from Genechem; wild-type construct as against truncations
T1 sequence (looked up): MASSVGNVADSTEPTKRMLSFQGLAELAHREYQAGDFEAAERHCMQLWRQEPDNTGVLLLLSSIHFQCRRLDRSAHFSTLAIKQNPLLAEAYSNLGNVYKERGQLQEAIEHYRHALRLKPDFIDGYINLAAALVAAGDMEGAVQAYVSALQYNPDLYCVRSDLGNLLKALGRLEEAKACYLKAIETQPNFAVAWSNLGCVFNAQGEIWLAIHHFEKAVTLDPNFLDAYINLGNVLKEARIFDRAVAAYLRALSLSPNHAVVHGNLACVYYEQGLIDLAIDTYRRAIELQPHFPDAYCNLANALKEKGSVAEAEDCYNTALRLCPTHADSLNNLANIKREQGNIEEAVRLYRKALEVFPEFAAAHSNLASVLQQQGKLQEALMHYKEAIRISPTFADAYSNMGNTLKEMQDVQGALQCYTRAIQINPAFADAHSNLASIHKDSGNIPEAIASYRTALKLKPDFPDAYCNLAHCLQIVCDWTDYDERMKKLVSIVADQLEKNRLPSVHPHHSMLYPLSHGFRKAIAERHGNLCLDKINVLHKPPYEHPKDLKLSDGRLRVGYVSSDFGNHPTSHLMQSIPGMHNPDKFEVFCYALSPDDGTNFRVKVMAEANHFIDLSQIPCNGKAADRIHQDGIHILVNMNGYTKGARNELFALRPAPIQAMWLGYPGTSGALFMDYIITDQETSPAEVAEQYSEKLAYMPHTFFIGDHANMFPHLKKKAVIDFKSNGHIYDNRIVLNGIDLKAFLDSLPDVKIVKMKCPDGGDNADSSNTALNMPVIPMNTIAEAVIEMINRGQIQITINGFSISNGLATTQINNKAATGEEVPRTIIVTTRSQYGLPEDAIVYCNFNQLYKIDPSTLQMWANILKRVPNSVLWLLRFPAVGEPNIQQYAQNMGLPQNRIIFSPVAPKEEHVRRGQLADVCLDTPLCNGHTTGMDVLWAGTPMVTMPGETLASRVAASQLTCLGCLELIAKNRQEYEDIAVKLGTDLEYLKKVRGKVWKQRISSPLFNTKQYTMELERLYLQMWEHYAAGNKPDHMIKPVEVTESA
Description: co-IP; recombinant GST-tagged OGT and MBP-tagged FOXC1 proteins (wild-type or truncations), co-IP and Western blot. As to conditions: both partners purified.

B1: forkhead box C1 (FOXC1): sh-OGT (protein)
parent chain: MQARYSVSSPNSLGVVPYLGGEQSYYRAAAAAAGGGYTAMPAPMSVYSHPAHAEQYPGGMARAYGPYTPQPQPKDMVKPPYSYIALITMAIQNAPDKKITLNGIYQFIMDRFPFYRDNKQGWQNSIRHNLSLNECFVKVPRDDKKPGKGSYWTLDPDSYNMFENGSFLRRRRRFKKKDAVKDKEEKDRLHLKEPPPPGRQPPPAPPEQADGNAPGPQPPPVRIQDIKTENGTCPSPPQPLSPAAALGSGSAAAVPKIESPDSSSSSLSSGSSPPGSLPSARPLSLDGADSAPPPPAPSAPPPHHSQGFSVDNIMTSLRGSPQSAAAELSSGLLASAAASSRAGIAPPLALGAYSPGQSSLYSSPCSQTSSAGSSGGGGGGAGAAGGAGGAGTYHCNLQAMSLYAAGERGGHLQGAPGGAGGSAVDDPLPDYSLPPVTSSSSSSLSHGGGGGGGGGGQEAGHHPAAHQGRLTSWYLNQAGGDLGHLASAAAAAAAAGYPGQQQNFHSVREMFESQRIGLNNSPVNGNSSCQMAFPSSQSLYRTSGAFVYDCSKF
B1: the expression_or_secretion result in data set [1] is reported as “decreases”.

B2: forkhead box C1 (FOXC1): sh-OGT #1 (protein)
parent chain: B1 parent chain
Consider B2, for which the degradation_or_half_life result in data set [2] is “decreases”.

B3: forkhead box C1 (FOXC1): S8A (protein)
parent chain: B1 parent chain
Turning to B3, the “other: transcriptional activity” value in data set [3] is “decreases”.

B4: forkhead box C1 (FOXC1): OSMI-1 (protein)
parent chain: B1 parent chain
For the molecule B4, in data set [1], the expression_or_secretion result is on record as “decreases”. The degradation_or_half_life result in data set [4] is given as “decreases”.

B5: recombinant MBP-tagged FOXC1 (wild-type) (natural protein, human, UniProt Q12948 1-553, looked up)
chain: B1 parent chain
notes: forkhead box C1 (FOXC1), human cDNA (1,662 bp) from Genechem; wild-type construct as against truncations; the printed AD1 domain is residues 1 to 68; a cDNA of 1,662 bp fits 553 codons and a stop codon
For the molecule B5, the binding result in data set [5] is recorded as “binds”.
